Test results as given in patent publication US20110301327A1 (MANNKIND, published 2011).
Like-named read-outs stand apart in the source and are kept apart here. Where no end group is shown, it is not given here. [ ]: non-standard residue; d: D form. Orn = NCCC[C@H](N)C(=O)O; Nva = CCC[C@H](N)C(=O)O

Tests used:
[1] = target: T1, HLA-A*0201 class I monomer (ITOPIA Epitope Discovery System plates); assay: iTopia binding assay
T1 construct: Bought kit; for the PSMA series only HLA-A2 is implied; also called MHC monomer; HLA-A2

[2] = target: T1, HLA-A*0201 class I monomer (ITOPIA …); assay: iTopia affinity assay
HLA-A*0201 [3] = target: T2, HLA-A*0201 (human); assay: T2 cell binding, flow cytometry; half-maximal binding
T2 construct: Empty class I on TAP-deficient T2 cells, stabilised by the added peptide; also called HLA-A2; MHC class I (A2 allele) on T2 cells

HLA-A*0201 [4] = target: T2, HLA-A*0201; assay: T2 cell binding, flow cytometry
HLA-A*0201 [5] = target: T2, HLA-A*0201; assay: T2 cell binding, flow cytometry; remark: listed apart in the source
[6] = target: T1, HLA-A*0201 class I monomer (ITOPIA …); assay: iTopia affinity assay (ED50)

XLLQHLIGL (Hse (homoserine) at P1) [PRAME425-433 analog, Hse at P1]
binding result [1]: binds

SLLQHLIGA [PRAME425-433 analog, Ala at PO]
binding result [2]: binds

KLLQHLIGL (also called Lys P1 analog) [PRAME425-433 analog, Lys at P1]
binding result [1]: binds

FVSEKIFYM [SSX2 41-49 (K41F, A42V, V49M)]
EC50 (HLA-A*0201 [3]): 17.8 µM

KLSEKIFYI [SSX2 41-49(A42L, V49I)]
EC50 (HLA-A*0201 [3]): 5.68 µM

KASEKIFYI [SSX2 41-49(V49I)]
EC50 (HLA-A*0201 [3]): 14 µM

KVSEKIFYI [SSX2 41-49(A42V, V49I)]
EC50 (HLA-A*0201 [3]): 13.9 µM

KLSEKIFYVX (Nle, norleucine, at position 10 (50)) [SSX-2 41-50(A42L, Y50(Nle))]
binding result (HLA-A*0201 [4]): binds

KASEKIFYX (C-terminal amide) [SSX2 41-49-NH2]
binding result (HLA-A*0201 [5]): no binding

FLLMWITQC (also called Substitution of S157 with F) [NY-ESO-1 157-165 S157F]
binding result (HLA-A*0201 [4]): binds

KLLMWITQC (also called Substitution of S157 with K) [NY-ESO-1 157-165 S157K]
binding result (HLA-A*0201 [4]): binds

[Orn]LLQHLIGL [PRAME425-433 analog, Orn at P1]
binding result [1]: binds

KLSEKIFYVL [SSX-2 41-50(A42L, Y50L)]
binding result (HLA-A*0201 [4]): binds

KLSEKIFYVV [SSX-2 41-50(A42L, Y50V)]
binding result (HLA-A*0201 [4]): binds

S[Nva]LQHLIGL [PRAME425-433 analog, Nva at P2]
fold reduction of affinity against the native peptide [6]: ~3 fold

KLSEKIFYVX (Nva, norvaline, at position 10 (50)) [SSX-2 41-50(A42L, Y50(Nva))]
binding result (HLA-A*0201 [4]): binds
